From US20100298541A1 (published 2010)

How the values were obtained:
[1] = molecular target: SYNAGIS®; assay: SPR (BIAcore 3000), SYNAGIS® amine-coupled to the chip, equilibrium binding of SynBP01
[2] = molecular target: SYNAGIS®; assay: SPR (BIAcore 3000), SYNAGIS® immobilized, both injected at 1 µM
[3] = molecular target: T1, TRAIL-R2/Fc fusion protein (R & D Systems) (UniProt O14763 54-182, limits assumed); assay: SPR (BIAcore), TRAIL-R2/Fc captured on goat anti-human-Fc IgG, 5E5 injected; from kon and koff
T1 construct: not shown: Fc part of the bought fusion; captured with anti-human IgG Fc antibody
T1 sequence (O14763 54-182 limits assumed): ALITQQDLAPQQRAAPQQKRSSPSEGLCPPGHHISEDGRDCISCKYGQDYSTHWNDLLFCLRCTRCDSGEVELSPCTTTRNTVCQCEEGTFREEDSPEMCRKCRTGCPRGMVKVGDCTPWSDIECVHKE
Method: Goat anti-human-Fc IgG was immobilized at a density of ˜7700 RUs onto a flow cell of a CM5 Biacore sensor chip surfaces using a standard amino coupling protocol (BIAcore, Inc.). Separately, a blank surface was also prepared on the same chip using the identical coupling protocol, minus the protein. This blank surface was used as a reference cell throughout the experiment, and served to correct for both non-specific binding and certain housekeeping artifacts.
After baseline stabilization, solutions of the Tn3 clone 5E5 (Table 7) were injected over both the captured ligand and control surfaces. Between injections, the Fc-capture surface was regenerated with two 1 min. injections of 10 mM Gly, pH2.
Several buffer and control protein injections were also interspersed throughout the injection series. Later, these buffer injections were used, along with the reference cell data, to correct the raw data sets for injection artifacts and/or non-specific ‘binding’ through a technique commonly referred to as “double-referencing.” (Myszka, D. G. (1999) J. Mol. Recognit. 12, pp. 279-284). Sensorgram overlays of the fully corrected data were generated using the BIAevaluation 4.1 software (BIAcore, Inc, Uppsala, Sweden). The affinity of 5E5 for binding to TRAIL-R2 was calculated by measuring the kₒₙ and koff.values in the BIAevaluation software for the sensorgram shown in FIG. 13.

[4] = molecular target: T1, TRAIL-R2/Fc fusion protein (R & D …); assay: biosensor, TRAIL-R2-Fc fusion protein immobilized; mono-, bi- and tetravalent D1 constructs injected
Method: FIG. 19. Binding affinity of Tn3 monomers and multimers. Depicted in this panel are sensorgrams from a Biosensor binding experiment using mono-, bi- and tetravalent 1C12 and D1 Tn3 constructs. TRAIL-R2-Fc fusion protein was immobilized on a sensor chip while sample proteins were injected over the chip. “tetra” refers to the tetravalent Cκ/IGHG1 fusion constructs.
A qualitative comparison of binding by monomeric 1C12, 1C12-Fc and 1C12-Cκ/1C12-IGHG1 proteins was performed by injecting samples of each of these proteins over a TRAIL-R2 chip on an Attana biosensor instrument.

Sequence of SYNAGIS® (VH, as listed by the source, chain 1 of 2): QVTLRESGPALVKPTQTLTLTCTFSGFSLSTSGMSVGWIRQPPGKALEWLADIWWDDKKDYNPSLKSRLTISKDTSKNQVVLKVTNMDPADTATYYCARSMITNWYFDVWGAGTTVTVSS
Sequence of SYNAGIS® (VL, as listed by the source, chain 2 of 2): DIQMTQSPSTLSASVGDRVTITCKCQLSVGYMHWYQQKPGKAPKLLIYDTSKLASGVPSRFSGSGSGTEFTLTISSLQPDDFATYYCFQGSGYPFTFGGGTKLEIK

B1: SynBP01 (designed binder)
chain: AAIEVKDVTDTTALITWSPPSVLVGYTIELTYGIKDVPGDRTTIDLTEDENQYSIGNLKPDTEYEVSLISVTEFGRRRSKETFTTGGGTLEHHHHHH
notes: also called SYNAGIS® specific Tn3 scaffold
[1]
  Kd: 16 µM

B2: SynBP01-Fc (Fc fusion)
chain: IEVKDVTDTTALITWSPPSVLVGYTIELTYGIKDVPGDRTTIDLTEDENQYSIGNLKPDTEYEVSLISVTEFGRRRSKETFTT
notes: Chimeric fusion made in 293EBNA cells from pOE-SynBP01; Called bivalent; also called SynBP01 scaffold fused to an Fc region; not shown: CH2 and CH3 domains of IgG1 Fc from the pOE-Fc vector
[2]
  fold increase in total response units compared to SynBP01: ~6 fold

B3: 5E5 (designed binder)
chain: IEVKDVTDTTALITWSLAPGYRLGCELTYGIKDVPGDRTTIDLTEDENQYSIGNLKPDTEYEVSLICVKLCMRGNPAKETFTT
notes: also called TRAIL-R2 specific clone 5E5
[3]
  Kd: ~0.7 µM

B4: D1 (designed binder)
chain: IEVKDVTDTTALITWSPGERIWMFTGCELTYGIKDVPGDRTTIDLTEDENQYSIGNLKPDTEYEVSLICPNYERISNPAKETFTT
[4]
  binding result: no binding
